Measured values from article PMC11761706.

Molecular target: T1, Loz1AZZ (Schizosaccharomyces pombe, UniProt Q9UTA1 426-522)
T1 sequence: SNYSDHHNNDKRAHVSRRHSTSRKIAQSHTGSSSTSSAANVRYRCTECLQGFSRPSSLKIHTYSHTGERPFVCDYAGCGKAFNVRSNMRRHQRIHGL
Experiment: NMR

B1: LRE DNA 14 bp (dsDNA)
DNA 1: GCGACGATCATTGG
DNA 2: CCAATGATCGTCGC
- binding result: binds
